Laboratory results published in article PMC5772350.

Key:
[1] = target: B5-Rhiz (anti-CEA sdAb fused C-terminally to rhizavidin); assay: SPR
[2] = target: B5-GS3K (anti-CEA sdAb with C-terminal positively charged tail); assay: SPR

Question: With “Carcinoembryonic antigen (CEA) (from UniProt P06731 35-685) (natural protein)” as the substance, how does the Activity (%) [1] read?
Answer: The Activity (%) was 5%.

Question: What about the XA (RU), SPR response to 100 nM CEA [1] of the same substance?
Answer: The XA (RU), SPR response to 100 nM CEA was 839 RU.

Question: What about the Activity (%) [2] of the same substance?
Answer: The Activity (%) was 14.3%.
